These results are taken from patent US20230416363A1.

The experiment addresses mouse PD-1 expressed on cells (mouse) (UniProt Q02242). Description: cell-based or functional assay.

Chain of mouse PD-1 expressed on cells (mouse) (Q02242 25-288): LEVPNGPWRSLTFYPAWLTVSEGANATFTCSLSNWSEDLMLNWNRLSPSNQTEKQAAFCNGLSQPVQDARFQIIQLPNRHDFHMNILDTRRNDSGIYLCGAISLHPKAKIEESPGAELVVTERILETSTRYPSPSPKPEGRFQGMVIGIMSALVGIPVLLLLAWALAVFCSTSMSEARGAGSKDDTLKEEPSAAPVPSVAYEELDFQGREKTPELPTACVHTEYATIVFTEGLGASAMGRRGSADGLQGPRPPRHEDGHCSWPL

B1: RMP1-14 (antibody, from another filing, V domains shown)
VH: EVQLQESGPGLVKPSQSLSLTCSVTGYSITSSYRWNWIRKFPGNRLEWMGYINSAGISNYNPSLKRRISITRDTSKNQFFLQVNSVTTEDAATYYCARSDNMGTTPFTYWGQGTLVTVSS
VL: DIVMTQGTLPNPVPSGESVSITCRSSKSLLYSDGKTYLNWYLQRPGQSPQLLIYWMSTRASGVSDRFSGSGSGTDFTLKISGVEAEDVGIYYCQQGLEFPTFGGGTKLELK
For the molecule B1, the IC 50, Promega assay amounted to 5.59 µg/mL.
